Experimental findings from patent publication US11110182B2, “Multifunctional RNA nanoparticles and methods for treating cancer and therapeutic resistant cancer” (University of Cincinnati, priority 2016, dated 2021) are described below.

In the series the test system is MED1. Kind of series: MED1 protein level by western blotting in BT474 cells. The note with it: 48 h; for MED1 protein level after transfection with lipofectamine 2000: BT474, transfected. It counts as cell-based, human. On the procedure:
FIG. 3A) BT474 cells were incubated with 10 μg/mL control and pRNA-HER2apt-siMED1 nanoparticles for 48 h, and MED1 mRNA level was determined by real-time PCR. FIG. 3B) BT474 cells were incubated directly with (as indicated by -) or transfected with indicated pRNAs using lipofectamine 2000. At 48 h post treatment, MED1 protein levels were determined by western blotting. FIG. 3C) BT474 cells were treated with 10 μg/mL pRNA nanoparticles for 48 h and assayed for cell viability by MTT assay. FIG. 3D) Cells were treated as above and seeded for migration, and FIG. 3E) invasion transwell assays. Scale bar: 50 μm. FIG. 3F) After pRNA treatment for 48 h, the mRNA levels of ERα target genes TFF-1, FIG. 3G) c-Myc, and FIG. 3H) cyclin D1 in BT474 cells were determined by real-time PCR.
FIG. 7A) Six HER2-targeting RNA aptamers were selected from previous literatures, and their secondary structures were predicted using Srna-fold software. FIG. 7B) Six p2 strands containing the six different HER2 RNA aptamers were synthesized and annealed with the same p1 strand to generate six different pRNA-HER2apt-MED1 siRNA nanoparticles, respectively, followed by examination using 8% native PAGE gel electrophoresis. FIG. 7C) BT474 cells were treated with above pRNA nanoparticles for 48 h, and then MED1 protein level was determined by western blotting. […] FIG. 7D) 1 μg pRNA nanoparticles were incubated with recombinant Dicer enzyme (Genlantis) at 37° C. for 12 h, the product was separated by 8% native PAGE gel.
FIG. 9A) BT474 cells were treated with different concentrations of pRNA nanoparticles as indicated for 48 h. After that, MED1 protein level was determined by western blots, and FIG. 9B) the cell viability was determined by MTT assay.
Cell culture. Human breast cancer luciferase-overexpressing BT474 and MDA-MB-231 cells were maintained in DMEM medium (Hyclone, Thermo Scientific) supplemented with 10% fetal bovine serum (FBS, Sigma) and 1% penicillin/streptomycin (Corning) at 37° C. in a humidified atmosphere with 5% CO2.^53 • Generation of pRNA nanoparticles. The two strands of pRNA were synthesized with the DNA templates, which were amplified with overlapping primers (Sigma) by PCR methods, using a T7 promoter-controlled in vitro RNA transcription system as previously described^33 (Table 1). All the CTP and UTP used for synthesis of the pRNA nanoparticles were 2′-fluoro modified, except the control unmodified pRNA nanoparticles used in the stability assays. Following an overnight transcription at 37° C., RNA strands were purified using RNA clean and concentrator kits (ZYMO research) and examined by 8 M urea denatured 8% PAGE gel. pRNA nanoparticles were assembled by mixing the equal molar amounts of p1 and p2 strands and gradually annealing from 90° C. to 20° C. in 1×RNA annealing buffer containing 50 mM Tris-HCl (pH 7.5), 50 mM NaCl and 1 mM EDTA on a PCR machine. […] The hydrodynamic diameter and Tm value of pRNA nanoparticles were determined using dynamic light scattering and TGGE assay, respectively, as previously described.^54 The AFM imaging of the pRNA nanoparticles was performed at the University of Nebraska Medical Center imaging facility as previously reported.^55 Briefly, the pRNA nanoparticles (5 μL) were deposited on APS modified mica ^56 for a total of 2 min of incubation time. […]

B1: pRNA-HER2apt-siMED1: 3-WJ pRNA nanoparticle bearing a HER2-targeting RNA aptamer and two different MED1 siRNAs; strands p1 SEQ ID NO: 3, p2 SEQ ID NO: 4 (nucleic acid)
chain 1: GGACAGUGAAAGUGAGUCAAAGGAUCAAUCAUGGCCAAAGAUGUUACUUUGAGAGCCUU
chain 2: GGCUCUCAAAGUAACAUCUAAGGCCAUGUGUAUGUGGGGGGAGGACGAUGCGGUCUGCUGUGCUUGAUAUGCCCCAGACGACUCGCCCCCCACAUACUUUGUUGAUCCAAUGACUCACUUUCACUGUCCUU
modifications: 2'-F modification; third strand may lack entry; pRNA-HER2apt-siMED1, p1; pRNA-HER2apt-siMED1, p2
As for B1, the “MED1 protein level after transfection with lipofectamine 2000” value is given as “MED1 silencing”. The “dose dependence of decrease of MED1 protein level” value (BT474, different concentrations) is “dose-dependent manner”. Further, the MED1 protein level result (BT474, direct incubation) was “greatly reduced”.

B2: pRNA-HER2apt^mut-siMED1: control pRNA nanoparticle with mutant HER2 aptamer; strands p1 SEQ ID NO: 5, p2 SEQ ID NO: 6 (nucleic acid)
chain 1: GGACAGUGAAAGUGAGUCAAAGGAUCAAUCAUGGCCAAAGAUGUUACUUUGAGAGCCUU
chain 2: GGCUCUCAAAGUAACAUCUAAGGCCAUGUGUAUGUGGGAUGAGGAGUAUGAAGAUACCUGUACUUGAUAUGCCCCAGACGACAUUCCCCCCACAUACUUUGUUGAUCCAAUGACUCACUUUCACUGUCCUU
modifications: pRNA-HER2apt(mut)-siMED1, p1; pRNA-HER2apt(mut)-siMED1, p2
In the case of B2, the “MED1 protein level after transfection with lipofectamine 2000” value is on record as “MED1 silencing”.
